Residue numbers refer to the chain shown, from its start. Residues, ends and D or L forms follow the SMILES beside them. *: point of attachment. NH(β-GlcNAc) = CC(=O)N[C@@H]1[C@@H](O)[C@H](O)[C@@H](CO)O[C@H]1N*; αGalNAc = CC(=O)N[C@@H]1[C@@H](O)[C@@H](O)[C@@H](CO)O[C@@H]1*
B1: IL-6R / sIL-6R (interleukin-6 receptor): peptide 3(QD), GlcNAc at Asn-350 (protein)
parent chain: MLAVGCALLAALLAAPGAALAPRRCPAQEVARGVLTSLPGDSVTLTCPGVEPEDNATVHWVLRKPAAGSHPSRWAGMGRRLLLRSVQLHDSGNYSCYRAGRPAGTVHLLVDVPPEEPQLSCFRKSPLSNVVCEWGPRSTPSLTTKAVLLVRKFQNSPAEDFQEPCQYSQESQKFSCQLAVPEGDSSFYIVSMCVASSVGSKFSKTQTFQGCGILQPDPPANITVTAVARNPRWLSVTWQDPHSWNSSFYRLRFELRYRAERSKTFTTWMVKDLQHHCVIHDAWSGLRHVVQLRAQEEFGQGEWSEWSPEAMGTPWTESRSPPAENEVSTPMQALTTNKDDDNILFRDSANATSLPVQDSSSVPLPTFLVAGGSLAFGTLLCIAIVLRFKKTWKLRALKEGKTSMHPPYSLGQLVPERPRPTPVLVPLISPPVSPSSLGSDNTSSHNRPDARDPRSPYDISNTDYFFPR
B2: IL-6R / sIL-6R (interleukin-6 receptor): peptide 5(QD), biantennary N-glycan at Asn-350 (protein)
parent chain: B1 parent chain
B3: IL-6R / sIL-6R (interleukin-6 receptor): peptide 7(QD), GalNAc at Thr-352 (protein)
parent chain: B1 parent chain
B4: IL-6R / sIL-6R (interleukin-6 receptor): peptide 9(QD), biantennary N-glycan plus GalNAc (protein)
parent chain: B1 parent chain
B5: IL-6R / sIL-6R (interleukin-6 receptor): peptide 4(QA), GlcNAc at Asn-350 (protein)
parent chain: B1 parent chain with D358A
B6: IL-6R / sIL-6R (interleukin-6 receptor): peptide 6(QA), biantennary N-glycan at Asn-350 (protein)
parent chain: B1 parent chain with D358A
B7: IL-6R / sIL-6R (interleukin-6 receptor): peptide 8(QA), GalNAc at Thr-352 (protein)
parent chain: B1 parent chain with D358A
B8: IL-6R / sIL-6R (interleukin-6 receptor): peptide 10(QA), biantennary N-glycan plus GalNAc (protein)
parent chain: B1 parent chain with D358A
B9: PVQA: IL-6R Asp358Ala variant (protein, UniProt P08887 20-468, looked up, variant D358A)
Interleukin-6 receptor …: LAPRRCPAQEVARGVLTSLPGDSVTLTCPGVEPEDNATVHWVLRKPAAGSHPSRWAGMGRRLLLRSVQLHDSGNYSCYRAGRPAGTVHLLVDVPPEEPQLSCFRKSPLSNVVCEWGPRSTPSLTTKAVLLVRKFQNSPAEDFQEPCQYSQESQKFSCQLAVPEGDSSFYIVSMCVASSVGSKFSKTQTFQGCGILQPDPPANITVTAVARNPRWLSVTWQDPHSWNSSFYRLRFELRYRAERSKTFTTWMVKDLQHHCVIHDAWSGLRHVVQLRAQEEFGQGEWSEWSPEAMGTPWTESRSPPAENEVSTPMQALTTNKDDDNILFRDSANATSLPVQASSSVPLPTFLVAGGSLAFGTLLCIAIVLRFKKTWKLRALKEGKTSMHPPYSLGQLVPERPRPTPVLVPLISPPVSPSSLGSDNTSSHNRPDARDPRSPYDISNTDYFFPR

How the values were obtained:
ADAM17 = system: T1, ADAM17; experiment: In vitro cleavage assay of IL-6R (glyco)peptides with recombinant ADAM17; conditions: human, isolated enzyme, pH 9
T1 construct: catalytic domain (aa Pro-18 to Val-477) of ADAM17; purchased Enzo Life Sciences GmbH (Lörrach, Germany)
Procedure: Fig 7 The N- and O-glycosylated sequon adjacent to the cleavage site is of minor importance for IL-6R cleavage. (A) Amino-acid sequence of the two unglycosylated peptides 1(QD) and 2(QA). Peptides were incubated either with or without recombinant ADAM17 for 16 h at 37°C, and the amount of cleaved peptide was analyzed by reversed-phase (RP) chromatography. (B) Amino-acid sequence of the two glycopeptides 3(QD) and 4(QA), which have a GlcNAc attached to the amino-acid residue corresponding to Asn-350 of the IL-6R. Cleavage was determined as described in panel (A). (C) Amino-acid sequence of the two glycopeptides 5(QD) and 6(QA), which have a biantennary N-glycan attached to the amino-acid residue corresponding to Asn-350 of the IL-6R. Cleavage was determined as described in panel (A). (D) Amino-acid sequence of the two glycopeptides 7(QD) and 8(QA), which have a GalNAc attached to the amino-acid residue corresponding toThr-352 of the IL-6R. Cleavage was determined as described in panel (A). (E) Amino-acid sequence of the two glycopeptides 9(QD) and 10(QA), which have a biantennary N-glycan attached to the amino-acid residue corresponding to Asn-350 and a GalNAc attached to the amino-acid residue corresponding toThr-352 of the IL-6R. Cleavage was determined as described in panel (A). All data shown are the mean ± SD from three independent experiments (*p < 0.05, **p < 0.01, ***p < 0.001, compared to the untreated peptide; ^§p < 0.05, compared to the cleaved nonglycosylated peptide).
Two 1.5 ml reaction tubes were filled with 50 μl peptide (50 μM) solved in 25 mM Hepes (pH 9.0), and 0.5 μl of the recombinant catalytic domain of ADAM17 was added to one of the reaction tubes, whereas the other sample remained untreated. All samples were incubated for 16 h at 37°C. Afterwards, 1,150 μl 0.1% TFA was added to each sample, and the peptides were separated on a reverse phase chromatography column (Multo High Bio-200-C18) from Chromatographie Service (Langerwehe, Germany) using a linear gradient elution with a binary solvent system and a flow rate of 1 ml/min. Solvent A consisted of 0.1% TFA, and solvent B consisted of 100% ACN. After peak integration, peak areas for cleaved and noncleaved peptides were determined.

[1] = in vitro peptide cleavage, 16 h, RP chromatography; conditions: glycan gained
ADAM10 = experiment: Ionomycin-induced ADAM10-mediated IL-6R ectodomain shedding in transiently transfected HEK293 cells, sIL-6R ELISA; type: cell-based, human; conditions: normalised to PVQD Iono = 100, mean of n = 3
Source text: Analysis of IL-6R ectodomain shedding in transiently transfected HEK293 cells or stably transduced Ba/F3-gp130 cell lines by ADAM10 and ADAM17 has been described elsewhere. Analysis of IL-6R proteolysis by CG has been described previously.
The sandwich ELISA, which detects sIL-6R as well as ds-sIL-6R (4-11/Baf227 antibodies) and can be used to quantify total sIL-6R serum levels, was described previously. To specifically detect ds-sIL-6R (either recombinant or in human serum), a similar approach was used (ds6R/Baf227). Both sandwich ELISAs were performed with streptavidin-horseradish peroxidase (R&D Systems, Minneapolis, Minnesota, US) and the peroxidase substrate BM blue POD (Roche, Mannheim, Germany). The enzymatic reaction was stopped by addition of 1.8 M sulfuric acid, and the absorbance read at 450 nm on a Tecan rainbow reader (Tecan, Crailsheim, Germany).
Supplementary file pbio.2000080.s004.tif: S4 Fig Mutation of Val-356 is sufficient to block ADAM10-mediated proteolysis of the IL-6R and the Asp358Ala variant. (A) HEK293 cells were transiently transfected with Expression plasmids encoding the wildtype IL-6R (PV) or the double mutants (IE, DG) as indicated. Cells were either treated with 1 μM ionomycin for 1 h or DMSO as vehicle control. sIL-6R was precipitated from the supernatant with concanavalin A-covered Sepharose beads, and cells were lysed. Both were analyzed via Western blot, and β-actin served as loading control. One out of three experiments with similar outcome is shown. (B, C) The experiment was performed as described under (A), but sIL-6R generation was analyzed via ELISA. In (B), the amount of sIL-6R generated after ionomycin-stimulation of the wildtype IL-6R (PV) was set to 100%, and all other values were calculated accordingly. In (C), the amount of sIL-6R without stimulation was considered as constitutive shedding and set to 1 and the increase of sIL-6R was calculated. Data shown are the mean ± SD from at least three independent experiments (*p<0.05, ns = no significant difference). (D-F) HEK293 cells were transiently transfected with expression plasmids encoding the wildtype IL-6R (PV) or the single mutants (DV, IV, PE, PG) as indicated. The experiments were performed as described in (A) to (C). (G) ADAM10-mediated proteolysis of the IL-6R variants depicted in Fig 4I was analyzed as described in (B). (H) Equal numbers of Ba/F3-gp130-IL-6R_DG cells were incubated for 48 h with increasing amounts (0–100 ng/ml) of either IL-6 or Hyper-IL-6. One representative experiment out of three performed is shown (mean ± SD, biological triplicates). (TIF) Click here for additional data file.

[2] = control: unglycosylated synthetic peptide 1(QD)
[3] = control: unglycosylated synthetic peptide 2(QA), Asp358Ala

| Molecule | other: proteolytic processing, other: percent peptide intact [1, 2] | other: proteolytic processing, other: percent peptide intact [1, 3] | further results |
| --- | --- | --- | --- |
| CC[C@H](C)[C@H](NC(=O)[C@@H](N)CC(N)=O)C(=O)N[C@@H](CC(C)C)C(=O)N[C@@H](Cc1ccccc1)C(=O)N[C@@H](CCCNC(=N)N)C(=O)N[C@@H](CC(=O)O)C(=O)N[C@@H](CO)C(=O)N[C@@H](C)C(=O)N[C@@H](CC(=O)N[C@@H]1O[C@H](CO)[C@@H](O)[C@H](O)[C@H]1NC(C)=O)C(=O)N[C@@H](C)C(=O)N[C@H](C(=O)N[C@@H](CO)C(=O)N[C@@H](CC(C)C)C(=O)N1CCC[C@H]1C(=O)N[C@H](C(=O)N[C@@H](CCC(N)=O)C(=O)N[C@@H](CC(=O)O)C(=O)N[C@@H](CO)C(=O)N[C@@H](CO)C(=O)N[C@@H](CO)C(=O)N[C@H](C(=O)N1CCC[C@H]1C(=O)N[C@@H](CC(C)C)C(=O)N1CCC[C@H]1C(=O)O)C(C)C)C(C)C)[C@@H](C)O [3(QD)] (H-NILFRDSAD(NH(β-GlcNAc))ATSLPVQDSSSVPLP-OH) |  |  | remaining at 16 h, 50 μM (ADAM17): 91.4% |
| CC[C@H](C)[C@H](NC(=O)[C@@H](N)CC(N)=O)C(=O)N[C@@H](CC(C)C)C(=O)N[C@@H](Cc1ccccc1)C(=O)N[C@@H](CCCNC(=N)N)C(=O)N[C@@H](CC(=O)O)C(=O)N[C@@H](CO)C(=O)N[C@@H](C)C(=O)N[C@@H](CC(=O)N[C@@H]1O[C@H](CO)[C@@H](O)[C@H](O)[C@H]1NC(C)=O)C(=O)N[C@@H](C)C(=O)N[C@H](C(=O)N[C@@H](CO)C(=O)N[C@@H](CC(C)C)C(=O)N1CCC[C@H]1C(=O)N[C@H](C(=O)N[C@@H](CCC(N)=O)C(=O)N[C@@H](C)C(=O)N[C@@H](CO)C(=O)N[C@@H](CO)C(=O)N[C@@H](CO)C(=O)N[C@H](C(=O)N1CCC[C@H]1C(=O)N[C@@H](CC(C)C)C(=O)N1CCC[C@H]1C(=O)O)C(C)C)C(C)C)[C@@H](C)O [4(QA)] (H-NILFRDSAD(NH(β-GlcNAc))ATSLPVQASSSVPLP-OH) |  |  | remaining at 16 h, 50 μM (ADAM17): 0.4% |
| CC[C@H](C)[C@H](NC(=O)[C@@H](N)CC(N)=O)C(=O)N[C@@H](CC(C)C)C(=O)N[C@@H](Cc1ccccc1)C(=O)N[C@@H](CCCNC(=N)N)C(=O)N[C@@H](CC(=O)O)C(=O)N[C@@H](CO)C(=O)N[C@@H](C)C(=O)N[C@@H](CC(N)=O)C(=O)N[C@@H](C)C(=O)N[C@H](C(=O)N[C@@H](CO)C(=O)N[C@@H](CC(C)C)C(=O)N1CCC[C@H]1C(=O)N[C@H](C(=O)N[C@@H](CCC(N)=O)C(=O)N[C@@H](CC(=O)O)C(=O)N[C@@H](CO)C(=O)N[C@@H](CO)C(=O)N[C@@H](CO)C(=O)N[C@H](C(=O)N1CCC[C@H]1C(=O)N[C@@H](CC(C)C)C(=O)N1CCC[C@H]1C(=O)O)C(C)C)C(C)C)[C@@H](C)O[C@H]1O[C@H](CO)[C@H](O)[C@H](O)[C@H]1NC(C)=O [7(QD)] (H-NILFRDSANAT(αGalNAc)SLPVQDSSSVPLP-OH) |  |  | remaining at 16 h, 50 μM (ADAM17): 91% |
| B1 | decreases |  |  |
| B2 | abolishes |  |  |
| B3 | decreases |  |  |
| B4 | abolishes |  |  |
| B5 |  | no change, 0.4% ± 0.7% vs 1.0% ± 1.0% |  |
| B6 |  | no change |  |
| B7 |  | decreases, 10.8% ± 5.4% vs 1.0% ± 1.0% |  |
| B8 |  | decreases, 14.7% ± 6.3% vs 1.0% ± 1.0% |  |
| B9 |  |  | sIL-6R shedding, Figure S4G, mean (ADAM10; treatment DMSO): 109.87; sIL-6R shedding, Figure S4G, mean (ADAM10; treatment Iono): 197.873 |

From PMC5218472 (PLoS Biology, 2017)
